Consider 6 molecules from US20170226211A1 (AGENCY OR SCIENCE TECHNOLOGY AND RESEARCH, published 2017).

Experiment [1] addresses T1, human CTLA-4 (human, UniProt P16410 36-161, limits assumed).
T1 construct: Construct not described (no limits, tag or fusion partner stated); also called huCTLA-4; CD152
The experiment is described as follows: blocking ELISA: antibody pre-incubated with human CTLA-4, binding of CTLA-4 to coated CD80 detected.

Experiment [2] concerns the target T2, mouse CTLA-4 (mouse, UniProt P09793 36-161, limits assumed).
T2 construct: construct not described; also called murine CTLA-4; the mouse protein
The experiment is described as follows: affinity ELISA, antibody coated, mouse CTLA-4 titrated; 2C8 IgG1 with LALA mutation (L234A, L235A). From the text: (§1) The “LALA” mutation refers to mutation of leucine residues at positions 234 and […] of the of the Fc region to alanine (i.e. L234A, L235A); this mutation is known to weaken interaction between Fc and Fc-γR, and therefore to prevent ADCC activity (see e.g. Hezareh et al., J Virol (2001) 75(24):12161-12168).
In general terms: ELISA stands for enzyme-linked immunosorbent assay.

For experiment [3], the target named is T2, mouse CTLA-4. The experiment is described as follows: avidity ELISA, mouse CTLA-4 coated, antibody titrated. As to the method: (§2) The response curve was plotted (see FIG. 10), and EC50 was calculated.
For experiment [4], the target named is T1, human CTLA-4. Briefly: cell-based or functional assay.
The target of experiment [5] is T1, human CTLA-4. The experiment is described as follows: ELISA, human CTLA-4 coated, Fab titrated.
Experiment [6] concerns the target T3, Human CD28 conjugated to human Fc (human, UniProt P10747 19-152).
T3 construct: not shown: human Fc
Briefly: ELISA, human CD28-Fc coated, antibody titrated.

In experiment [7] the target is T2, mouse CTLA-4. The experiment is described as follows: affinity ELISA, antibody coated, mouse CTLA-4 titrated; 2C8 IgG4.
Source text: as §1

Experiment [8] has as its target T2, mouse CTLA-4. The experiment is described as follows: affinity ELISA, antibody coated, mouse CTLA-4 titrated; 2C8 IgG1.
Source text: as §1

The target in experiment [9] is T1, human CTLA-4. Briefly: affinity ELISA, antibody coated, human CTLA-4 titrated.
The target in experiment [10] is T1, human CTLA-4. The experiment is described as follows: SPR, antibody immobilised on chip, human CTLA-4 flowed over. (In general: SPR reads the build-up and loss of mass on a sensor chip optically.)
The target of the next experiment is T4, Cynomolgus/Rhesus CTLA-4 (cynomolgus/rhesus).
T4 construct: Printed as one protein 'Cynomolgus/Rhesus CTLA-4'
The experiment is described as follows: ELISA, antibody coated, Cynomolgus/Rhesus CTLA-4 titrated.

The target of experiment [11] is T3, Human CD28 conjugated to human Fc. Briefly: ELISA, human CD28-human Fc coated, antibody titrated.
Experiment [12] has as its target T1, human CTLA-4. The experiment is described as follows: avidity ELISA, human CTLA-4 coated, antibody titrated. As to the method:
as §2

Experiment [13] concerns the target T5, mouse CTLA-4 expressed on HEK-293.6E cells (mouse, UniProt P09793 36-223).
T5 construct: whole, on cells; also called cell surface-expressed mouse CTLA-4
The experiment is described as follows: flow cytometry on HEK-293.6E cells transfected with mouse CTLA-4. For orientation: A flow cytometer gives signals particle by particle.

The target of experiment [14] is T6, human CTLA-4 expressed on HEK-293.6E cells (human, UniProt P16410 36-223).
T6 construct: whole, on cells; also called cell surface-expressed human CTLA-4
T6 sequence (P16410 36-223): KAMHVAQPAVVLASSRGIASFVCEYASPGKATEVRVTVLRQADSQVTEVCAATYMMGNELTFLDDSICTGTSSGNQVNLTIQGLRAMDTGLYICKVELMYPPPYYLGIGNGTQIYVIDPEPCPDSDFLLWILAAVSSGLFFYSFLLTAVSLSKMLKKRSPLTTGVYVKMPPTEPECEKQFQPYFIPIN
Briefly: flow cytometry on HEK-293.6E cells transfected with human CTLA-4.

In experiment [15] the target is T2, mouse CTLA-4. Briefly: affinity ELISA, antibody coated, mouse CTLA-4 titrated; 2C8_gI IgG1.
Source text: as §1

Where a chain is given by its changes, count along the chain named.

T1 sequence (P16410 36-161 limits assumed): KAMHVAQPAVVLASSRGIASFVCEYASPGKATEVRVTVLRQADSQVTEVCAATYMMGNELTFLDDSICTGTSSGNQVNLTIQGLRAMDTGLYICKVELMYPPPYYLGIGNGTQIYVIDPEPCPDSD

B1: L3D10 (commercial mouse anti-human CTLA-4 IgG1) (antibody, V domains shown)
VH: QVQLKESGPGLVAPSQSLSITCTVSGFSLTSYGLSWVRQPPGKGLEWLGVIWYDGNTNFHSALISRLTISKDNSKSQVFLELNSLQTDDTATYYCAKTEGHYYGSNYGYYALDYWGQGTSVTVSS
VL: DIQMTQSPASLSVSVGETVTITCRASENIYSNLAWYQQKQGKSPQLLVYAATNLADGVPSRFSGSGSGTQYSLKINSLQSEDFGTYFCQHLWGTPYTFGGGTKLEIK
Turning to B1, the “IC50 (read off the curve)” value in the experiment with human CTLA-4 [1] was approximately 1 nM.

B2: 2C8 IgG1 with LALA mutation (antibody, V domains shown)
VH: QVQLQQSGPGLVKPSQTLSLTCAISGDTVSSNTAAWNWIRQSPSRGLEWLGRTYYRSKWYSDYGLSVKSRMTINADTSKNQVSLHLNSVTPEDTAVYYCAREGSGGTLIYWGQGTLVTVSS
VL: DIQLTQSPSSVSASVGDRVTITCRATQGISSWLAWYQQKPGKAPKLLIYAASSLQSGVPSRFSGSGSGTEFTLTISSLQPEDFATYYCQQANTLPLFTFGPGTKVDIK
notes: also called 2C8 with LALA mutation; 2C8 with the mutation
On to B2, for which the EC50 (as a rule, the concentration giving half of the maximal effect) with mouse CTLA-4 [2] is 5.1 nM; with mouse CTLA-4 [3], 8 nM. Besides, the “EC50, T cell reactivation assay (IL-2 secretion by Jurkat T cells)” value in the experiment with human CTLA-4 [4] fell in the range of 0.7 to 1.2 nM.

B3: anti-CTLA-4 antibody clone 2C8, Fab (Fab, V domains shown)
VH: B2 VH
VL: B2 VL
notes: Fab from a human antibody phage display library
With B3, in the experiment with human CTLA-4 [1], the “IC50 (read off the curve)” value was approximately 5 nM. In the experiment with human CTLA-4 [5], the EC50 (read off the curve) (as a rule, the midpoint of the concentration-response curve) is approximately 1 nM. Also, the binding result in [6] is reported as “no binding (tested: 1000 nM)”.

B4: 2C8 IgG4 (antibody, V domains shown)
VH: B2 VH
VL: B2 VL
notes: IgG4 format; also called IgG4 version of 2C8
As for B4, the results for the EC50 with mouse CTLA-4 [3] and with mouse CTLA-4 [7] were 20.9 nM and 7 nM, respectively.

B5: anti-CTLA-4 antibody clone 2C8, human IgG1 (antibody, V domains shown)
VH: B2 VH
VL: B2 VL
notes: also called 2C8 IgG; 2C8 IgG1
Regarding B5, the EC50 with mouse CTLA-4 [8] amounted to 9.6 nM; with human CTLA-4 [9] it was 5 nM; with mouse CTLA-4 [3], 4.9 nM; with human CTLA-4 [12], 0.0636 nM. In addition, in the experiment with human CTLA-4 [10], the Kd (usually a measure of binding affinity in units of concentration) turned out to be 9.6 nM. For the same molecule, the “EC50 (read off the curve)” value is approximately 0.3 nM with Cynomolgus/Rhesus CTLA-4, approximately 6 nM in experiment [13] and approximately 4 nM in experiment [14]. Moreover, in experiment [11], the binding result is given as “no binding”.

B6: anti-CTLA-4 antibody clone 2C8_gI, IgG1 (antibody, V domains shown)
VH: B2 VH with T28S, M71I, A75P, V82F, H85Q
VL: B2 VL with L4M, E70D
notes: IgG1; also called germline version of the antibody
Regarding B6, the EC50 with mouse CTLA-4 [3] turned out to be 77.1 nM; with mouse CTLA-4 [15] it was 23.5 nM.
